Experimental data reported in patent US20140087995A1 (published 2014).
Numbered stars: 1 amine (or outer) side, 2 acyl side, 3 side chain; on linkers, the order of the positions; unused ones are H or OH. Bridge positions count the residues as written; N and C are the ends. Square brackets hold non-standard residues; d marks the D form. Side chains are listed from the residue outwards. Ends that are not written are not given here. * marks the point of attachment. C20 diacid = O=C(O)CCCCCCCCCCCCCCCCCCC(=O)*; γGlu = O=C(O)[C@H](CCC(=O)[*:2])N[*:1]; AEEA = NCCOCCOCC(=O)O

B1: N^ε1-[2-[2-[2-[[2-[2-[2-[[(4S)-4-carboxy-4-(19-carboxynonadecanoylamino)butanoyl]amino]ethoxy]ethoxy]acetyl]amino]ethoxy]ethoxy]acetyl]-[Arg17,Pro21,Pro27,Pro34 … (peptide)
peptide: K([AEEA-AEEA-γGlu-C20 diacid])CNTATCATQRLANFLRHSSPNFGAIPSSTNVGPNTY-NH2
modifications: disulfide 2-7; N-terminus assumed
SMILES: CC[C@H](C)[C@H](NC(=O)[C@H](C)NC(=O)CNC(=O)[C@H](Cc1ccccc1)NC(=O)[C@H](CC(N)=O)NC(=O)[C@@H]1CCCN1C(=O)[C@H](CO)NC(=O)[C@H](CO)NC(=O)[C@H](Cc1c[nH]cn1)NC(=O)[C@H](CCCNC(=N)N)NC(=O)[C@H](CC(C)C)NC(=O)[C@H](Cc1ccccc1)NC(=O)[C@H](CC(N)=O)NC(=O)[C@H](C)NC(=O)[C@H](CC(C)C)NC(=O)[C@H](CCCNC(=N)N)NC(=O)[C@H](CCC(N)=O)NC(=O)[C@@H](NC(=O)[C@H](C)NC(=O)[C@@H]1CSSC[C@H](NC(=O)[C@@H](N)CCCCNC(=O)COCCOCCNC(=O)COCCOCCNC(=O)CC[C@H](NC(=O)CCCCCCCCCCCCCCCCCCC(=O)O)C(=O)O)C(=O)N[C@@H](CC(N)=O)C(=O)N[C@@H]([C@@H](C)O)C(=O)N[C@@H](C)C(=O)N[C@@H]([C@@H](C)O)C(=O)N1)[C@@H](C)O)C(=O)N1CCC[C@H]1C(=O)N[C@@H](CO)C(=O)N[C@@H](CO)C(=O)N[C@H](C(=O)N[C@@H](CC(N)=O)C(=O)N[C@H](C(=O)NCC(=O)N1CCC[C@H]1C(=O)N[C@@H](CC(N)=O)C(=O)N[C@H](C(=O)N[C@@H](Cc1ccc(O)cc1)C(N)=O)[C@@H](C)O)C(C)C)[C@@H](C)O
notes: also called compound 98
B2: N^ε1-[2-[2-[2-(19-carboxynonadecanoylamino)ethoxy]ethoxy]acetyl]-[Arg17,Pro21,Pro27,His34]-h-amylin (peptide)
peptide: K([AEEA-C20 diacid])CNTATCATQRLANFLRHSSPNFGAIPSSTNVGHNTY-NH2
modifications: disulfide 2-7; N-terminus assumed
SMILES: CC[C@H](C)[C@H](NC(=O)[C@H](C)NC(=O)CNC(=O)[C@H](Cc1ccccc1)NC(=O)[C@H](CC(N)=O)NC(=O)[C@@H]1CCCN1C(=O)[C@H](CO)NC(=O)[C@H](CO)NC(=O)[C@H](Cc1c[nH]cn1)NC(=O)[C@H](CCCNC(=N)N)NC(=O)[C@H](CC(C)C)NC(=O)[C@H](Cc1ccccc1)NC(=O)[C@H](CC(N)=O)NC(=O)[C@H](C)NC(=O)[C@H](CC(C)C)NC(=O)[C@H](CCCNC(=N)N)NC(=O)[C@H](CCC(N)=O)NC(=O)[C@@H](NC(=O)[C@H](C)NC(=O)[C@@H]1CSSC[C@H](NC(=O)[C@@H](N)CCCCNC(=O)COCCOCCNC(=O)CCCCCCCCCCCCCCCCCCC(=O)O)C(=O)N[C@@H](CC(N)=O)C(=O)N[C@@H]([C@@H](C)O)C(=O)N[C@@H](C)C(=O)N[C@@H]([C@@H](C)O)C(=O)N1)[C@@H](C)O)C(=O)N1CCC[C@H]1C(=O)N[C@@H](CO)C(=O)N[C@@H](CO)C(=O)N[C@H](C(=O)N[C@@H](CC(N)=O)C(=O)N[C@H](C(=O)NCC(=O)N[C@@H](Cc1c[nH]cn1)C(=O)N[C@@H](CC(N)=O)C(=O)N[C@H](C(=O)N[C@@H](Cc1ccc(O)cc1)C(N)=O)[C@@H](C)O)C(C)C)[C@@H](C)O
notes: also called compound 91
B3: N^ε1-[(4S)-4-carboxy-4-[[(4S)-4-carboxy-4-(19-carboxynonadecanoylamino)butanoyl]amino]butanoyl]-[D-Asp14,Arg17,Pro21,Pro27,Arg35]-h-amylin (peptide)
peptide: K([γGlu-γGlu-C20 diacid])CNTATCATQRLA[dD]FLRHSSPNFGAIPSSTNVGSRTY-NH2
modifications: disulfide 2-7; N-terminus assumed
SMILES: CC[C@H](C)[C@H](NC(=O)[C@H](C)NC(=O)CNC(=O)[C@H](Cc1ccccc1)NC(=O)[C@H](CC(N)=O)NC(=O)[C@@H]1CCCN1C(=O)[C@H](CO)NC(=O)[C@H](CO)NC(=O)[C@H](Cc1c[nH]cn1)NC(=O)[C@H](CCCNC(=N)N)NC(=O)[C@H](CC(C)C)NC(=O)[C@H](Cc1ccccc1)NC(=O)[C@@H](CC(=O)O)NC(=O)[C@H](C)NC(=O)[C@H](CC(C)C)NC(=O)[C@H](CCCNC(=N)N)NC(=O)[C@H](CCC(N)=O)NC(=O)[C@@H](NC(=O)[C@H](C)NC(=O)[C@@H]1CSSC[C@H](NC(=O)[C@@H](N)CCCCNC(=O)CC[C@H](NC(=O)CC[C@H](NC(=O)CCCCCCCCCCCCCCCCCCC(=O)O)C(=O)O)C(=O)O)C(=O)N[C@@H](CC(N)=O)C(=O)N[C@@H]([C@@H](C)O)C(=O)N[C@@H](C)C(=O)N[C@@H]([C@@H](C)O)C(=O)N1)[C@@H](C)O)C(=O)N1CCC[C@H]1C(=O)N[C@@H](CO)C(=O)N[C@@H](CO)C(=O)N[C@H](C(=O)N[C@@H](CC(N)=O)C(=O)N[C@H](C(=O)NCC(=O)N[C@@H](CO)C(=O)N[C@@H](CCCNC(=N)N)C(=O)N[C@H](C(=O)N[C@@H](Cc1ccc(O)cc1)C(N)=O)[C@@H](C)O)C(C)C)[C@@H](C)O

What was measured:
[1] = target: T1, human calcitonin receptor (human, UniProt P30988 25-474); test: ratio IC50 hCTR / IC50 hAmylin-R (reference: human amylin receptor), SPA competition assays
T1 construct: whole, on cells; Assay used cell membranes, not intact cells; also called hCTR; hCT
T1 sequence (looked up): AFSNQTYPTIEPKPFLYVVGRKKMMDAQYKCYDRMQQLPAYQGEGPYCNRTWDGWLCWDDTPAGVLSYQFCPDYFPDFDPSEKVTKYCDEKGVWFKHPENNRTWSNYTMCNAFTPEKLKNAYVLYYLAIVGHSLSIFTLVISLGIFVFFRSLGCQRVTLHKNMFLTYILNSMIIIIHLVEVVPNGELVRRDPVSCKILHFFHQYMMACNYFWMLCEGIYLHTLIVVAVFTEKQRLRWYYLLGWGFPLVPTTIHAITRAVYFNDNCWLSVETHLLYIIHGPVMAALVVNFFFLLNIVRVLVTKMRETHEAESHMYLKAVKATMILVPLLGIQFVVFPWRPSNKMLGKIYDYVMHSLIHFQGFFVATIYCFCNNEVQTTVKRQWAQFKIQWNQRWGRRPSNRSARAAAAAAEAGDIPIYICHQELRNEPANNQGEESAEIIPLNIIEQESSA
Procedure: The resulting pellet was resuspended, homogenized and centrifuged (20.000 rpm, 15 min) in a buffer containing 20 mM Na-HEPES and 0.1 mM EDTA (pH 7.4, buffer 2). The resulting pellet was resuspended in buffer 2 and protein concentration was measured (BCA protein Assay, Pierce). The homogenate was kept cold during the whole procedure. The membranes were kept at −80° C. until use. The assay was performed in a 384 well Optiplate (PerkinElmer) in a total volume of 40 ul. Membranes were mixed with SPA beads. Final concentration of membranes 35 ng/μL final and SPA beads was 0.05 mg/well. Test-compounds were dissolved in DMSO and further diluted in assay buffer (50 mM Hepes, pH 7.4, 1 mM CaCl2, 5 mM MgCl₂, 0.1% OA and 0.02% Tween20). […] The final mixture was incubated with shaking at 400 rpm for 120 min at 25° C. prior to centrifugation (1500 rpm, 10 min). Samples were analyzed on TopCounter™ (Packard). The IC₅₀ was calculated using (one site binding competition analysis) GraphPad Prism5 as a measure of receptor affinity.
Membranes were prepared in the following way; the cells were rinsed with PBS and incubated with Versene for approximately 5 min before harvesting. The cells were flushed with PBS and the cell-suspension was centrifuged for 5 min at 1000 rpm. Cells were homogenized (Ultrathurrax) in a buffer containing 20 mM Na-HEPES and 10 mM EDTA (pH 7.4) and centrifuged at 20.000 rpm for 15 min. The resulting pellet was resuspended, homogenized and centrifuged (20.000 rpm, 15 min) in a buffer containing 20 mM Na-HEPES and 0.1 mM EDTA (pH 7.4, buffer 2). The resulting pellet was resuspended in buffer 2 and protein concentration was measured (BCA protein Assay, Pierce). The homogenate was kept cold during the whole procedure. The membranes were kept at −80° C. until use. Assay was performed in a 384 well Optiplate (PerkinElmer) in a total volume of 40 ul. Membranes were mixed with SPA beads.

[2] = target: T1, human calcitonin receptor; test: SPA competition with 125I-calcitonin on membranes of BHK cells with human calcitonin receptor (Assay VII)
Procedure: Membranes were prepared in the following way; the cells were rinsed with PBS and incubated with Versene for approximately 5 min before harvesting. The cells were flushed with PBS and the cell-suspension was centrifuged for 5 min at 1000 rpm. Cells were homogenized (Ultrathurrax) in a buffer containing 20 mM Na-HEPES and 10 mM EDTA (pH 7.4) and centrifuged at 20.000 rpm for 15 min. The resulting pellet was resuspended, homogenized and centrifuged (20.000 rpm, 15 min) in a buffer containing 20 mM Na-HEPES and 0.1 mM EDTA (pH 7.4, buffer 2). The resulting pellet was resuspended in buffer 2 and protein concentration was measured (BCA protein Assay, Pierce). The homogenate was kept cold during the whole procedure. The membranes were kept at −80° C. until use. Assay was performed in a 384 well Optiplate (PerkinElmer) in a total volume of 40 ul. Membranes were mixed with SPA beads. Final concentration of membranes 35 ng/μL final and Final concentration of SPA beads was 0.05 mg/well. Test-compounds were dissolved in DMSO and further diluted in assay buffer (50 mM Hepes, pH 7.4, 1 mM CaCl2, 5 mM MgCl₂, 0.1% OA and 0.02% Tween20). […] The final mixture was incubated for 120 min with shaking at 400 rpm at 25° C. prior to centrifugation (1500 rpm, 10 min). Samples were analyzed on TopCounter™ (Packard). The […] was calculated using (one site binding competition analysis) GraphPad Prism5 as a measure of receptor affinity.

[3] = target: T2, human amylin receptor (amylin 3(a) receptor: human calcitonin receptor with RAMP-3) (human, UniProt P30988 25-474; O60896 24-148); test: SPA competition with 125I-rat amylin on membranes of BHK cells with human calcitonin receptor and RAMP-3 (Assay V)
T2 construct: whole, on cells; Assay used cell membranes of the Amylin 3(a)/CRE-luc BHK cells, not intact cells; also called hAmylin-R; hAmylinR
T2 sequence (looked up) 1: T1 sequence (looked up)
T2 sequence (looked up) 2: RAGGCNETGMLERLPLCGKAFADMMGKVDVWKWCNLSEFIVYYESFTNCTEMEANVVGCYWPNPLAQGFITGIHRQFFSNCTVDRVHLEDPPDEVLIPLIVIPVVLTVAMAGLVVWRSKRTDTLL
Procedure: The binding assay was performed using scintillation proximity assay (SPA) beads (RPNQ0001) from PerkinElmer and cell membranes from the Amylin 3(a)/CRE-luc cells (as described in Assay (II)) were used. Membranes were prepared in the following way; the cells were rinsed with PBS and incubated with Versene for approximately 5 min before harvesting. The cells were flushed with PBS and the cell-suspension was centrifuged for 5 min at 1000 rpm. Cells were homogenized (ultrathurrax) in a buffer containing 20 mM Na-HEPES and 10 mM EDTA (pH 7.4) and centrifuged at 20.000 rpm for 15 min. The resulting pellet was resuspended, homogenized and centrifuged (20.000 rpm, 15 min) in a buffer containing 20 mM Na-HEPES and 0.1 mM EDTA (pH 7.4, buffer 2). The resulting pellet was resuspended in buffer 2 and protein concentration was measured (BCA protein Assay, Pierce). The homogenate was kept cold during the whole procedure. The membranes were kept at −80° C. until use. The assay was performed in a 384 well Optiplate (PerkinElmer) in a total volume of 40 ul. Membranes were mixed with SPA beads. Final concentration of membranes 35 ng/μL final and SPA beads was 0.05 mg/well. Test-compounds were dissolved in DMSO and further diluted in assay buffer (50 mM Hepes, pH 7.4, 1 mM CaCl2, 5 mM MgCl₂, 0.1% OA and 0.02% Tween20). […] The final mixture was incubated with shaking at 400 rpm for 120 min at 25° C. prior to centrifugation (1500 rpm, 10 min). Samples were analyzed on TopCounter™ (Packard). The IC₅₀ was calculated using (one site binding competition analysis) GraphPad Prism5 as a measure of receptor affinity.

Binder	Ratio hCT/hAmylin binding [1]	IC50 [2]	IC50 [3]
B1	74.1	6.74 nM	0.091 nM
B2	101	12 nM	0.119 nM
B3		112 nM	0.365 nM
